Results published in paper PMC7969032, “Tandem RNA binding sites induce self-association of the stress granule marker protein TIA-1”.

T1: TIA-1 full length (short isoform, p40) (human, UniProt P31483-2 1-375)
T1 sequence: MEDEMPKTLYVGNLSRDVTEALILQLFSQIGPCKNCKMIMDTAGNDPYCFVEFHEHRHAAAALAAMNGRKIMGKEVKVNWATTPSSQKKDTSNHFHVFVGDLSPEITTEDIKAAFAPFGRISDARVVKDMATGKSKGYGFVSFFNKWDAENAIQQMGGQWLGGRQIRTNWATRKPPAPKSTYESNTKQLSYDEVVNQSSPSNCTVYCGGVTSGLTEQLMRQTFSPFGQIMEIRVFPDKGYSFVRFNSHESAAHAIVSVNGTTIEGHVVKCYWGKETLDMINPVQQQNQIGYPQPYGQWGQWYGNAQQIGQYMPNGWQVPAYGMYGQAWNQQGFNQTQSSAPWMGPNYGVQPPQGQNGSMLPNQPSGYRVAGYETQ


Legend:
[1] = target: T1, TIA-1 full length (short isoform, p40); experiment: fluorescence anisotropy; 0.5 M arginine-HCl, 60 mM KCl, 1 mM MgCl2; KD not in text; FA: 1 nM Fl-TC1; RRM23 in 10 mM HEPES pH 7.2, 50 mM NaCl, 1 mM DTT (legend: 20 mM HEPES); full-length TIA-1 in 20 mM sodium phosphate, 60 mM KCl, 0.5 M arginine-HCl, 1 mM MgCl2, 2 mM DTT, 0.5 mM EDTA, pH 7; Csat at room temperature; conditions: protein: recombinant; tags: His-tag removed by TEV (untagged); label: 5'-fluorescein
[2] = target: T1, TIA-1 full length (short isoform, p40); experiment: SAXS; 500 mM arginine; SASDJK5; FA: 1 nM Fl-TC1; RRM23 in 10 mM HEPES pH 7.2, 50 mM NaCl, 1 mM DTT (legend: 20 mM HEPES); full-length TIA-1 in 20 mM sodium phosphate, 60 mM KCl, 0.5 M arginine-HCl, 1 mM MgCl2, 2 mM DTT, 0.5 mM EDTA, pH 7; Csat at room temperature; conditions: protein: recombinant; tags: His-tag removed by TEV (untagged)
[3] = target: T1, TIA-1 full length (short isoform, p40); experiment: SAXS; 500 mM arginine; SASDJL5; FA: 1 nM Fl-TC1; RRM23 in 10 mM HEPES pH 7.2, 50 mM NaCl, 1 mM DTT (legend: 20 mM HEPES); full-length TIA-1 in 20 mM sodium phosphate, 60 mM KCl, 0.5 M arginine-HCl, 1 mM MgCl2, 2 mM DTT, 0.5 mM EDTA, pH 7; Csat at room temperature; conditions: protein: recombinant; tags: His-tag removed by TEV (untagged)
[4] = target: T1, TIA-1 full length (short isoform, p40); experiment: co-sedimentation with condensed phase (PAGE); 4:1 TIA-1:TC site, 10 uM TIA-1; FA: 1 nM Fl-TC1; RRM23 in 10 mM HEPES pH 7.2, 50 mM NaCl, 1 mM DTT (legend: 20 mM HEPES); full-length TIA-1 in 20 mM sodium phosphate, 60 mM KCl, 0.5 M arginine-HCl, 1 mM MgCl2, 2 mM DTT, 0.5 mM EDTA, pH 7; Csat at room temperature; conditions: protein: recombinant; tags: His-tag removed by TEV (untagged)

| Binder | binding result [4] | further results |
| --- | --- | --- |
| TTTTTACTCC (ssDNA) [TC1 (5'-fluorescein)] | – | binding result [1]: binds |
| TTTTTACTCC (ssDNA) [TC1] | – | binding result [2]: binds |
| UUUUUACUCC (ssRNA) [UC1] | – | binding result [3]: binds |
| TTTTTACTCCAATTTTTACTCC (ssDNA) [TC2] | binds | – |
| TTTTTACTCCAATTTTTACTCCAATTTTTACTCC (ssDNA) [TC3] | binds | – |
| TC5 (ssDNA) DNA: TTTTTACTCCAATTTTTACTCCAATTTTTACTCCAATTTTTACTCCAATTTTTACTCC | binds | – |
| TC7 (ssDNA) DNA: TTTTTACTCCAATTTTTACTCCAATTTTTACTCCAATTTTTACTCCAATTTTTACTCCAATTTTTACTCCAATTTTTACTCC | binds | – |
| TC9 (ssDNA) DNA: TTTTTACTCCAATTTTTACTCCAATTTTTACTCCAATTTTTACTCCAATTTTTACTCCAATTTTTACTCCAATTTTTACTCCAATTTTTACTCCAATTTTTACTCC | binds | – |
